# Test results reported in IntAct's records for PubMed 29892012.
# B1: Late cornified envelope protein 1B (Homo sapiens), Q5T7P3 (parent)
# chain: MSCQQNQQQCQPPPKCIPKCPPKCLTPRCPPKCPPKCPPVSSCCSVSSGGCCGSSSGGSCGSSSGGCCSSGGGGCCLSHHRRRRSHCHRPQSSGCCSQPSGGSSCCGGGSGQHSGGCC
# partner: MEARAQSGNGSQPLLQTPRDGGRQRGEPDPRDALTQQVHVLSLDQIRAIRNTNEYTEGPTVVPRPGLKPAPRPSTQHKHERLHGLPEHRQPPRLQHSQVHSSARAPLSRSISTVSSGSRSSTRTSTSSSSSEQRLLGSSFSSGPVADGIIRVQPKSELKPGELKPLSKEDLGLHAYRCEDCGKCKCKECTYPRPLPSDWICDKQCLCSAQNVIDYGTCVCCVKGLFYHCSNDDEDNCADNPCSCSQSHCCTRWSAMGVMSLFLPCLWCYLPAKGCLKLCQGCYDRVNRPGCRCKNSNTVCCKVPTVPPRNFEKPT
# B2: Late cornified envelope protein 1B (Homo sapiens), Q5T7P3 (parent)
# chain: B1 chain
# partner: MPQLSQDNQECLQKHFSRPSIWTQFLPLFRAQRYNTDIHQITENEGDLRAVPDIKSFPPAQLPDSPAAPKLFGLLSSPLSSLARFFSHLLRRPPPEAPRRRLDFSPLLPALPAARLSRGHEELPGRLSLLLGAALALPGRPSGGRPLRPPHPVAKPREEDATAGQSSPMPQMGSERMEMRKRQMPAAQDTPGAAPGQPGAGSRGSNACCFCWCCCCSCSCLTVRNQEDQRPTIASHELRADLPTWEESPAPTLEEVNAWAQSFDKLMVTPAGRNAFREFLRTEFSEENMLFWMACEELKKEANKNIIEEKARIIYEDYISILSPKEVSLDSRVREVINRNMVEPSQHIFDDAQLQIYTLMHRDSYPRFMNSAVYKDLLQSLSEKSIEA
# B3: Late cornified envelope protein 1B (Homo sapiens), Q5T7P3 (parent)
# chain: B1 chain
# partner: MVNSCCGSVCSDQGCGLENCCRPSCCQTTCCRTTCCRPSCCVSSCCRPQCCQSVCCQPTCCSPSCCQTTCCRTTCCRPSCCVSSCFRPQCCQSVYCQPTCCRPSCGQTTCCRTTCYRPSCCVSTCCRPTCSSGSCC
# B4: Late cornified envelope protein 1B (Homo sapiens), Q5T7P3 (parent)
# chain: B1 chain
# partner: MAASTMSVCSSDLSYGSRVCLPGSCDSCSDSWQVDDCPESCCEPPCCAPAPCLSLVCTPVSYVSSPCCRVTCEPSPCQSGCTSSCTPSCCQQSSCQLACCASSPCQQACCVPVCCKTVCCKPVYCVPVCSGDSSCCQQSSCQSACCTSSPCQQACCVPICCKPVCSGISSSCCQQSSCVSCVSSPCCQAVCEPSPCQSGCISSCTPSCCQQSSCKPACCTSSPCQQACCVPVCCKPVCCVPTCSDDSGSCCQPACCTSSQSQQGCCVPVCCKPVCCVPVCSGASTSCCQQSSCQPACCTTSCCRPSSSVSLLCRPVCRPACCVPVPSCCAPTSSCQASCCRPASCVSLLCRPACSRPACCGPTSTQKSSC
# B5: Late cornified envelope protein 1B (Homo sapiens), Q5T7P3 (parent)
# chain: B1 chain
# partner: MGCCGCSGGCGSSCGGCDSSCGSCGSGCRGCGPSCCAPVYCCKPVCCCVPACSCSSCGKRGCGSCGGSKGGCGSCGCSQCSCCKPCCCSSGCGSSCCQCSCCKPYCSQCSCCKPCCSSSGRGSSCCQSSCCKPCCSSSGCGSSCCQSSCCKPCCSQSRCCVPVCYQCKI
# B6: Late cornified envelope protein 1B (Homo sapiens), Q5T7P3 (parent)
# chain: B1 chain
# partner: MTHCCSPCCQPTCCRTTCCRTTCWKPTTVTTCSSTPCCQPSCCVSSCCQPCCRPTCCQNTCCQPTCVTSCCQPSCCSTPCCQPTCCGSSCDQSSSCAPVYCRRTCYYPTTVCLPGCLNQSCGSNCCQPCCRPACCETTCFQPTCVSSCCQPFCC
# B7: Late cornified envelope protein 1B (Homo sapiens), Q5T7P3 (parent)
# chain: B1 chain
# partner: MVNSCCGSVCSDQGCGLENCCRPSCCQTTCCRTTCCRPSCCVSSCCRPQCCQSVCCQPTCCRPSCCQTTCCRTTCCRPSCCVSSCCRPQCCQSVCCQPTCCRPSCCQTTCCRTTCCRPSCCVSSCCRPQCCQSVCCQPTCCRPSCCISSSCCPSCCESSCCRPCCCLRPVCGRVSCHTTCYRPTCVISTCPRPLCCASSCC
# B8: Pre-B-cell leukemia transcription factor-interacting protein 1 (Homo sapiens), Q96AQ6 (parent)
# chain: MASCPDSDNSWVLAGSESLPVETLGPASRMDPESERALQAPHSPSKTDGKELAGTMDGEGTLFQTESPQSGSILTEETEVKGTLEGDVCGVEPPGPGDTVVQGDLQETTVVTGLGPDTQDLEGQSPPQSLPSTPKAAWIREEGRCSSSDDDTDVDMEGLRRRRGREAGPPQPMVPLAVENQAGGEGAGGELGISLNMCLLGALVLLGLGVLLFSGGLSESETGPMEEVERQVLPDPEVLEAVGDRQDGLREQLQAPVPPDSVPSLQNMGLLLDKLAKENQDIRLLQAQLQAQKEELQSLMHQPKGLEEENAQLRGALQQGEAFQRALESELQQLRARLQGLEADCVRGPDGVCLSGGRGPQGDKAIREQGPREQEPELSFLKQKEQLEAEAQALRQELERQRRLLGSVQQDLERSLQDASRGDPAHAGLAELGHRLAQKLQGLENWGQDPGVSANASKAWHQKSHFQNSREWSGKEKWWDGQRDRKAEHWKHKKEESGRERKKNWGGQEDREPAGRWKEGRPRVEESGSKKEGKRQGPKEPPRKSGSFHSSGEKQKQPRWREGTKDSHDPLPSWAELLRPKYRAPQGCSGVDECARQEGLTFFGTELAPVRQQELASLLRTYLARLPWAGQLTKELPLSPAFFGEDGIFRHDRLRFRDFVDALEDSLEEVAVQQTGDDDEVDDFEDFIFSHFFGDKALKKRSGKKDKHSQSPRAAGPREGHSHSHHHHHRG
# B9: Zinc finger CCCH domain-containing protein 11A (Homo sapiens), O75152 (parent)
# chain: MPNQGEDCYFFFYSTCTKGDSCPFRHCEAAIGNETVCTLWQEGRCFRQVCRFRHMEIDKKRSEIPCYWENQPTGCQKLNCAFHHNRGRYVDGLFLPPSKTVLPTVPESPEEEVKASQLSVQQNKLSVQSNPSPQLRSVMKVESSENVPSPTHPPVVINAADDDEDDDDQFSEEGDETKTPTLQPTPEVHNGLRVTSVRKPAVNIKQGECLNFGIKTLEEIKSKKMKEKSKKQGEGSSGVSSLLLHPEPVPGPEKENVRTVVRTVTLSTKQGEEPLVRLSLTERLGKRKFSAGGDSDPPLKRSLAQRLGKKVEAPETNIDKTPKKAQVSKSLKERLGMSADPDNEDATDKVNKVGEIHVKTLEEILLERASQKRGELQTKLKTEGPSKTDDSTSGARSSSTIRIKTFSEVLAEKKHRQQEAERQKSKKDTTCIKLKIDSEIKKTVVLPPIVASRGQSEEPAGKTKSMQEVHIKTLEEIKLEKALRVQQSSESSTSSPSQHEATPGARRLLRITKRTGMKEEKNLQEGNEVDSQSSIRTEAKEASGETTGVDITKIQVKRCETMREKHMQKQQEREKSVLTPLRGDVASCNTQVAEKPVLTAVPGITRHLTKRLPTKSSQKVEVETSGIGDSLLNVKCAAQTLEKRGKAKPKVNVKPSVVKVVSSPKLAPKRKAVEMHAAVIAAVKPLSSSSVLQEPPAKKAAVAVVPLVSEDKSVTVPEAENPRDSLVLPPTQSSSDSSPPEVSGPSSSQMSMKTRRLSSASTGKPPLSVEDDFEKLIWEISGGKLEAEIDLDPGKDEDDLLLELSEMIDS
# B10: U3 small nucleolar RNA-associated protein 25 homolog (Homo sapiens), Q68CQ4 (parent)
# chain: MGKRGSRSQSQLLNTLTKKQKKHLRDFGEEHPFYDRVSRKEAKPQICQLSESSDSSDSESDSESEPQQVSGYHRLLATLKNVSEEEEEDEEEEEEEDSIVDDAEMNDEDGGSDVSVEEEMAAESTESPENVALSADPEGKEDGEEPPGTSQTSPEEFTDAKHESLFSLETNFLEEESGDNSSLKASQDPFLQHVNKELKEKAIQAVATNPKTTHELKWPILGQLFFSSKFQKLETFKPPKDIDLKSLHLQKPLESTWTKTNSQFLSGPQKSSSPFTPLQKELFLIMNSYRDLFYPERTALKNGEEIRHVYCLHVINHILKANAQVLGNNSRRRSQKFGVGDDDDFRDQGLTRPKVLIVVPFREAALRVVQLFISLLEGDSKKKIIVSNKKRFQGEYGSDPEERPPNLKRPEDYEAVFVGNIDDHFRIGVAILQRSIRLYAPFYSSDILIASPLGLRTIIGGEGEKKRDFDFLSSIELLIIDQADIYLMQNWEHVLHLMNHMNLLPLDSHGVDFSRVRMWSLNNWSKYYRQTLLFGALQDAQINSVFNKYCVNMQGQVAVRNVPMTGSISHVLVQLPHVFQRMEAENLASVIDARFNFFVNKILPQYRDAVMSHTLIYIPSYFDFVRLRNYFKKEELNFTHICEYTQKSGVSRARHFFLQGEKQFLLFTERFHFYKRYTIKGIRNLIFYELPTYPHFYSEICNMLRATNRGEEATWTCTVLYSKYDAQRLAAVVGVERAAQMLQSNKNVHLFITGEK
# partner: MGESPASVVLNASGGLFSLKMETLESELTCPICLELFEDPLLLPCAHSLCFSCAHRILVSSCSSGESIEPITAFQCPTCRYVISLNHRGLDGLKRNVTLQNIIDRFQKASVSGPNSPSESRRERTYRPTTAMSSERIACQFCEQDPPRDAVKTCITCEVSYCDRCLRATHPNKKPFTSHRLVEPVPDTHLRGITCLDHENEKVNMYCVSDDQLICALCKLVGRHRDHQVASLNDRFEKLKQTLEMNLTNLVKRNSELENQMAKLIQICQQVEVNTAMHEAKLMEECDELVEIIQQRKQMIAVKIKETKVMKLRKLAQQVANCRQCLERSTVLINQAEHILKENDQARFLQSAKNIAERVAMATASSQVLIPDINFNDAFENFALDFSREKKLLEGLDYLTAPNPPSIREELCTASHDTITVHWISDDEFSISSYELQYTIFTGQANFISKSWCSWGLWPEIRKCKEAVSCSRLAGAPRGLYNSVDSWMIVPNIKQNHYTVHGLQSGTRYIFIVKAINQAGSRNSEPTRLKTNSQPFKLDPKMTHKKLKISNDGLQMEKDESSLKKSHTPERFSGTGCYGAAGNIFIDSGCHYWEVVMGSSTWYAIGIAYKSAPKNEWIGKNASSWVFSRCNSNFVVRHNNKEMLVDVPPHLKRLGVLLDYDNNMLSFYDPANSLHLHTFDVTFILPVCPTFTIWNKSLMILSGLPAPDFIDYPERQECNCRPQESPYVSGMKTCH
# Variants of: B1
# Conditions: with spy2_human SPRY2, O43597
row,Variant,effect of a mutation on the interaction
1,MSCQQNQQQCQPPPKYIPKCPPKCLTPRCPPKCPPKCPPVSSCCSVSSGGCCGSSSGGSCGSSSGGCCSSGGGGCCLSHHRRRRSHCHRPQSSGCCSQPSGGSSCCGGGSGQHSGGCC [C16Y],with no effect

# Variants of: B2
# Conditions: with rgs20_human RGS20, O76081
row,Variant,effect of a mutation on the interaction
1,MSCQQNQQQCQPPPKYIPKCPPKCLTPRCPPKCPPKCPPVSSCCSVSSGGCCGSSSGGSCGSSSGGCCSSGGGGCCLSHHRRRRSHCHRPQSSGCCSQPSGGSSCCGGGSGQHSGGCC [C16Y],with no effect

# Variants of: B3
# Conditions: with kra42_human KRTAP4-2, Q9BYR5
row,Variant,effect of a mutation on the interaction
1,MSCQQNQQQCQPPPKYIPKCPPKCLTPRCPPKCPPKCPPVSSCCSVSSGGCCGSSSGGSCGSSSGGCCSSGGGGCCLSHHRRRRSHCHRPQSSGCCSQPSGGSSCCGGGSGQHSGGCC [C16Y],with no effect

# Variants of: B4
# Conditions: with kr107_human KRTAP10-7, P60409
row,Variant,effect of a mutation on the interaction
1,MSCQQNQQQCQPPPKYIPKCPPKCLTPRCPPKCPPKCPPVSSCCSVSSGGCCGSSSGGSCGSSSGGCCSSGGGGCCLSHHRRRRSHCHRPQSSGCCSQPSGGSSCCGGGSGQHSGGCC [C16Y],disrupting interaction strength

# Variants of: B5
# Conditions: with kra59_human KRTAP5-9, P26371
row,Variant,effect of a mutation on the interaction
1,MSCQQNQQQCQPPPKYIPKCPPKCLTPRCPPKCPPKCPPVSSCCSVSSGGCCGSSSGGSCGSSSGGCCSSGGGGCCLSHHRRRRSHCHRPQSSGCCSQPSGGSSCCGGGSGQHSGGCC [C16Y],disrupting interaction strength

# Variants of: B6
# Conditions: with kra94_human KRTAP9-4, Q9BYQ2
row,Variant,effect of a mutation on the interaction
1,MSCQQNQQQCQPPPKYIPKCPPKCLTPRCPPKCPPKCPPVSSCCSVSSGGCCGSSSGGSCGSSSGGCCSSGGGGCCLSHHRRRRSHCHRPQSSGCCSQPSGGSSCCGGGSGQHSGGCC [C16Y],disrupting interaction strength

# Variants of: B7
# Conditions: with kr412_human KRTAP4-12, Q9BQ66
row,Variant,effect of a mutation on the interaction
1,MSCQQNQQQCQPPPKYIPKCPPKCLTPRCPPKCPPKCPPVSSCCSVSSGGCCGSSSGGSCGSSSGGCCSSGGGGCCLSHHRRRRSHCHRPQSSGCCSQPSGGSSCCGGGSGQHSGGCC [C16Y],disrupting interaction strength

# Variants of: B8
# Conditions: with mdfi_human MDFI
row,Variant,effect of a mutation on the interaction
1,V238M,with no effect

# Variants of: B9
# Conditions: with mlh1_human MLH1, P40692
# Chain of mlh1_human MLH1, P40692 (P40692 whole entry): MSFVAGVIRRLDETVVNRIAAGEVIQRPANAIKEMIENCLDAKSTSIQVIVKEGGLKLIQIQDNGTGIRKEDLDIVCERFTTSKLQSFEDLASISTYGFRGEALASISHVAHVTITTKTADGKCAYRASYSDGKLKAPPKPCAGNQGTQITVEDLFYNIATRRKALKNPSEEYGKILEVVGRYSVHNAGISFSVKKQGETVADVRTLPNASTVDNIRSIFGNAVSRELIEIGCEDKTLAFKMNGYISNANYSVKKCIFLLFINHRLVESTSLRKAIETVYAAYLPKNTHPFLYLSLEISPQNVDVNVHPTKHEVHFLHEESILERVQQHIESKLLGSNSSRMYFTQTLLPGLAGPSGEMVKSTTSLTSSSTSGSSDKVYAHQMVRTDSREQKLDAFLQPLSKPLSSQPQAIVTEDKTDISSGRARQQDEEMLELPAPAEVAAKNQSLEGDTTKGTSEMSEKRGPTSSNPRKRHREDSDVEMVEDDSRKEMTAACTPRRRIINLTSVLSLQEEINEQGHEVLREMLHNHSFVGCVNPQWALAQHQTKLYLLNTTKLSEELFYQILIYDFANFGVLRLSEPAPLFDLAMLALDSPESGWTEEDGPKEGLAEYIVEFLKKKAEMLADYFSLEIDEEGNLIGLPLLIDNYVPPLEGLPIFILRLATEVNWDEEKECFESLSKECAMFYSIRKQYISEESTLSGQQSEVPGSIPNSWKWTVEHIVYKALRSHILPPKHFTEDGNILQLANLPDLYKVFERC
row,Variant,effect of a mutation on the interaction
1,E408D,with no effect

# Variants of: B10
# Conditions: with trim1_human MID2, Q9UJV3
row,Variant,effect of a mutation on the interaction
1,D399E,with no effect
